Source: patent US20210145976A1 (ARO BIOTHERAPEUTICS, published 2021)
Substitutions are numbered along the chain they refer to.

B1: SEQ ID NO 261 (designed binder)
chain: MLPAPKNLVVSRVTEDSARLSWTAPDAAFDSFTIVYGEWGVPGEAIVLTVPGSERSYDLTGLKPGTEYDVWIEGVKGGDLSWPLSAIVTT
notes: FN3 domain
B2: SEQ ID NO 85 (designed binder)
chain: MLPAPKNLVVSRVTEDSARLSWTAPDAAFDSFFIWYWEKSVDGEAIVLTVPGSERSYDLTGLKPGTEYNVGIQGVKGGTPSDPLSAIFTT
notes: FN3 domain
B3: SEQ ID NO 112 (designed binder)
chain: B2 chain with W35A, W37F, K39F, S40A, V41N, D42P, N69K, G71V, D82E, F88S
notes: FN3 domain
B4: SEQ ID NO 296 (designed binder)
chain: B2 chain with W35G, W37L, K39P, S40Q, V41P, D42P, V47I, G71T, T79F, D82M
notes: FN3 domain
B5: SEQ ID NO 307 (designed binder)
chain: MLPAPKNLVVSRVTEDSARLSWTAPDAAFDSFPITYSEPAHYGEAIVLTVPGSERSYDLTGLKPGTEYHVGIMGVKGGVFSSPLSAIFTT
notes: FN3 domain
B6: SEQ ID NO 214 (designed binder)
chain: MLPAPKNLVVSRVTEDSARLSWTAPDAAFDSFAIPYGERQELGEAIVLTVPGSERSYDLTGLKPGTEYFVVIQGVKGGQPSYPLSAIFTT
notes: FN3 domain
B7: SEQ ID NO 303 (designed binder)
chain: B2 chain with W35A, W37F, K39F, S40A, V41N, D42P, N69K, G71V, D82E
notes: FN3 domain
B8: SEQ ID NO 152 (designed binder)
chain: B2 chain with W35G, W37L, K39P, S40Q, V41P, D42P, G71T, T79F, D82S
notes: FN3 domain
B9: SEQ ID NO 278 (designed binder)
chain: MLPAPKNLVVSRVTEDSARLSWTAPDAAFDSFPIAYAEPRPDGEAIVLTVPGSERSYDLTGLKPGTEYSVLIHGVKGGHLSDPLSAIFTT
notes: FN3 domain
B10: SEQ ID NO 257 (designed binder)
chain: B9 chain with P33H, A35V, A37H, D42S, S69E, L71G, H73V, G74S, H79D, D82V
notes: FN3 domain
B11: SEQ ID NO 168 (designed binder)
chain: B2 chain with A24T, W35G, W37L, K39P, S40Y, V41P, D42P, N69V, G71S, T79K
notes: FN3 domain
B12: SEQ ID NO 237 (designed binder)
chain: B1 chain with V35L, W39M, V41T, P42T, W71F, D79E, V88F
notes: FN3 domain
B13: SEQ ID NO 233 (designed binder)
chain: B9 chain with P33Y, A35V, R40I, D42N, H79R, L80N
notes: FN3 domain
B14: SEQ ID NO 174 (designed binder)
chain: B6 chain with A33F, P35G, G37L, R39P, E41P, L42P, F69K, Q79T, Y82E
notes: FN3 domain
B15: SEQ ID NO 96 (designed binder)
chain: B2 chain with W35G, W37L, K39P, S40Q, V41P, D42P, G71T, T79F, D82M
B16: SEQ ID NO 164 (designed binder)
chain: B9 chain with P33L, A35P, P39T, R40S, D42S
notes: FN3 domain
B17: SEQ ID NO 212 (designed binder)
chain: MLPAPKNLVVSRVTEDSARLSWTAPDAAFDSFIIEYWEQIGVGEAIVLTVPGSERSYDLTGLKPGTEYWVGIYGVKGGLLSSPLSAIFTT
notes: FN3 domain
B18: SEQ ID NO 146 (designed binder)
chain: B9 chain with P33Y, H79L, D82S
notes: FN3 domain
B19: SEQ ID NO 197 (designed binder)
chain: MLPAPKNLVVSRVTEDSARLSWTAPDAAFDSFKIDYLEINDNGEAIVLTVPGSERSYDLTGLKPGTEYPVYIWGVKGGYPSSPLSAIFTT
notes: FN3 domain
B20: SEQ ID NO 149 (designed binder)
chain: B9 chain with P33I, A35P, P39V, H79K, D82E
notes: FN3 domain
B21: SEQ ID NO 136 (designed binder)
chain: MLPAPKNLVVSRVTEDSARLSWTAPDAAFDSFFIYYIESYPAGEAIVLTVPGSERSYDLTGLKPGTEYWMGIDGVKGGRWSTPLSAIFTT
notes: FN3 domain
B22: SEQ ID NO 284 (designed binder)
chain: B2 chain with W35G, W37L, K39P, S40Q, V41P, D42P, G71T, T79F, D82M
B23: SEQ ID NO 222 (designed binder)
chain: B17 chain with I33Y, W37F, Q39W, I40T, V42S, W69N, G71A, L79A, L80V, S82Y
notes: FN3 domain
B24: SEQ ID NO 115 (designed binder)
chain: MLPAPKNLVVSRVTEDSARLSWTAPDAAFDSFFIGYLEPQPPGEAIVLTVPGSERSYDLTGLKPGTEYNVTIQGVKGGFPSMPLSAIFTTT
notes: FN3 domain

Legend:
[1] = biological target: T1, recombinant biotinylated CD71 extracellular domain (Sino Biologics) with an N-terminal 6His tag (human, UniProt P02786 89-760, biotinylated (sites not given)); assay: screening ELISA
T1 construct: extracellular domain; also called hCD71; huCD71
T1 sequence (P02786 other isoform, or with tags, fused parts or gaps): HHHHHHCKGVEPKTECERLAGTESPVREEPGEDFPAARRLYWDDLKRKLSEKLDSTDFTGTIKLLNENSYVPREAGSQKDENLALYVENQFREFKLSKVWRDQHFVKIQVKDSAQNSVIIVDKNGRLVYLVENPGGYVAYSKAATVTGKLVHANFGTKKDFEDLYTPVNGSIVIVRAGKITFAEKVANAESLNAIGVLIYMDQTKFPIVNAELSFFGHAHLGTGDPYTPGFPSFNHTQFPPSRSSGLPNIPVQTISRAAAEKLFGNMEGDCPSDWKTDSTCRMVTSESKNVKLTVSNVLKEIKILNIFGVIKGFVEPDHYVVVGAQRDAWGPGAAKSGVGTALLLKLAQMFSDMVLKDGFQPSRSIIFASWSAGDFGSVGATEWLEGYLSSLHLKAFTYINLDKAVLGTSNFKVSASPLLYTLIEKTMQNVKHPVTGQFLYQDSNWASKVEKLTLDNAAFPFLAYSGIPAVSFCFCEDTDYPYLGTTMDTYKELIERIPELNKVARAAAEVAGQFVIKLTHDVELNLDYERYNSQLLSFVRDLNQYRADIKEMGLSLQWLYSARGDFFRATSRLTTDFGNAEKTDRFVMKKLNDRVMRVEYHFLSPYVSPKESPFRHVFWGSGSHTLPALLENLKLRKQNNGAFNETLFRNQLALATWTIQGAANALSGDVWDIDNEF

[2] = biological target: T1, recombinant biotinylated CD71 …; assay: screening ELISA, ratio
CD71 on SK-BR-3 cells = CD71 on SK-BR-3 cells (human, UniProt P02786 1-760); assay: cell-based or functional assay
CD71 on SK-BR-3 cells, sequence (P02786 whole entry): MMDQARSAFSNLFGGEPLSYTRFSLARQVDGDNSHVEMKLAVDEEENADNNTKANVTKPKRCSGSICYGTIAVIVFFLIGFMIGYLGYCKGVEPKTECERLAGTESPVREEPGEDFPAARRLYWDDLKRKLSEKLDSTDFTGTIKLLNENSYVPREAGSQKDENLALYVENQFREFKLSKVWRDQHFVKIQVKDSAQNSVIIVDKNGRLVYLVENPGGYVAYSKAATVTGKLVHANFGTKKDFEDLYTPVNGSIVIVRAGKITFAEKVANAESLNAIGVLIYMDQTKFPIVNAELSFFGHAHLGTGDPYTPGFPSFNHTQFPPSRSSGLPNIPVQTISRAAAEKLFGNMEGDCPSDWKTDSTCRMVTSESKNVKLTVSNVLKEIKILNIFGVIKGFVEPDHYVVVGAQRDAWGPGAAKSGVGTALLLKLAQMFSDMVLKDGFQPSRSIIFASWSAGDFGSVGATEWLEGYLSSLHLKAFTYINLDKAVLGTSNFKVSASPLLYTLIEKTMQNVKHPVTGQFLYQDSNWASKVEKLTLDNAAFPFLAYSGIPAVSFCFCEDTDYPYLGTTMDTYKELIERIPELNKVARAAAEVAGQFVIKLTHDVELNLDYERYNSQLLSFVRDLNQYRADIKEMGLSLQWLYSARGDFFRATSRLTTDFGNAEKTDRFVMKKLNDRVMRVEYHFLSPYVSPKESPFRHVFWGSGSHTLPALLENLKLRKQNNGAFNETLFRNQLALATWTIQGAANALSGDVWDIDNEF

Row | Binder | hCD71 [1] | hCD71:HSA [2] | IC50, SKBR-3 viability, MMAF conjugate, first unlabelled column (+/- human transferrin) (CD71 on SK-BR-3 cells) | IC50, SKBR-3 viability, MMAF conjugate, second unlabelled column (+/- human transferrin) (CD71 on SK-BR-3 cells)
1 | B1 | 4.23e+06 | 763 | 1.24 nM | 31.2 nM
2 | B2 | 2.91e+06 | 1160 | – | 89 nM
3 | B3 | 3.65e+06 | 514 | 27.3 nM | 4.55 nM
4 | B4 | 2.7e+06 | 844 | 29.3 nM | 18.6 nM
5 | B5 | 2.19e+06 | 503 | 47.9 nM | 30.8 nM
6 | B6 | 2.14e+06 | 974 | 28.1 nM | 29.2 nM
7 | B7 | 3.51e+06 | 1330 | 33 nM | 39 nM
8 | B8 | 2.83e+06 | 534 | 19.6 nM | 5.24 nM
9 | B9 | 3.69e+06 | 568 | 13.2 nM | 3.7 nM
10 | B10 | 2.37e+06 | 601 | 22 nM | 6.5 nM
11 | B11 | 2.9e+06 | 1480 | 32 nM | 7.2 nM
12 | B12 | 4.15e+06 | 2240 | 28.1 nM | 3.76 nM
13 | B13 | 3.41e+06 | 1310 | 54.6 nM | 17.7 nM
14 | B14 | 2.42e+06 | 1100 | – | 158 nM
15 | B15 | – | – | 79.5 nM | 27 nM
16 | B16 | 2.6e+06 | 2370 | 18.7 nM | 55.8 nM
17 | B17 | 2.49e+06 | 1110 | – | 6.69 nM
18 | B18 | 3.07e+06 | 809 | 7.13 nM | 3.46 nM
19 | B19 | 4.57e+06 | 242 | – | 0.468 nM
20 | B20 | 2.77e+06 | 826 | 9.7 nM | 5.5 nM
21 | B21 | 4.03e+06 | 706 | 2.32 nM | 0.503 nM
22 | B22 | – | – | 98 nM | 32 nM
23 | B23 | 1.74e+06 | 441 | – | 28.2 nM
24 | B24 | 2.92e+06 | 846 | 24.2 nM | 10.4 nM
